The target in test [1] is activated human MMP-1 (human) (UniProt P03956).
For test [2], the target named is activated human MMP-14 (human) (UniProt P50281).

Chain of activated human MMP-1 (human) (P03956 100-469 limits assumed): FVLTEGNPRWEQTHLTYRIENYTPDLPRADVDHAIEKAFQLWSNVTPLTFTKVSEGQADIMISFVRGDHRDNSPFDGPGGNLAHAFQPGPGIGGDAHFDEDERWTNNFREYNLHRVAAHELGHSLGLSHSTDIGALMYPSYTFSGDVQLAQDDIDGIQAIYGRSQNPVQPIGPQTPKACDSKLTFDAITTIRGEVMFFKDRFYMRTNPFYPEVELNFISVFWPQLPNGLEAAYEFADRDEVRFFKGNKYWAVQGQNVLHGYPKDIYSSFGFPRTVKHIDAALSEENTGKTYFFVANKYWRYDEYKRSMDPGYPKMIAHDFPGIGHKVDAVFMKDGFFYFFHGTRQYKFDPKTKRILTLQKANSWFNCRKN

TIMP2 (from UniProt P16035 27-220) yielded an IC50 (read off the curve) (human MMP-1 activity, FRET peptide substrate) in test [1] of 0.9 nM. In test [2], the IC50 (read off the curve) (human MMP-14 activity, FRET peptide substrate) was 6 nM.

These data come from patent US20200317802A1.
